Data as given in paper PMC2742391 (Protein Engineering, Design and Selection, 2009).

B1: recombinant wild-type fasciculin-2 (natural protein)
chain: TMCYSHTTTSRAILTNCGENSCYRKSRRHPPKMVLGRGCGCPPGDDNLEVKCCTSPDKCNY

Columns and labels:
[1] = biological target: Torpedo californica acetylcholinesterase (Torpedo californica) (UniProt P04058); experiment: kinetics of approach to equilibrium by enzyme activity
[2] = biological target: Torpedo californica acetylcholinesterase (Torpedo californica) (UniProt P04058); experiment: titration of enzyme activity
[3] = biological target: T1, Torpedo californica acetylcholinesterase (Torpedo californica, UniProt P04058 22-564); experiment: kinetics of approach to equilibrium by enzyme activity
[4] = biological target: T1, Torpedo californica acetylcholinesterase; experiment: titration of enzyme activity

Molecule	Kd [1]	koff [1]	kon [1]	Kd [2]	Kd [3]	koff [3]	kon [3]	Kd [4]
fasciculin double mutant T8V/T9N (natural protein)	600 pM	0.0505 s⁻¹	8.5e+07 M⁻¹ s⁻¹	640 pM	–	–	–	–
fasciculin mutant T8V (natural protein)	–	–	–	125 pM	–	–	–	–
fasciculin mutant K32R (natural protein)	2600 pM	0.09 s⁻¹	–	2300 pM	–	–	–	–
fasciculin mutant H29R (natural protein)	30 pM	0.0127 s⁻¹	3.9e+08 M⁻¹ s⁻¹	52 pM	–	–	–	–
fasciculin mutant T9N (natural protein)	–	–	–	2800 pM	–	–	–	–
fasciculin mutant R11K (natural protein)	630 pM	0.0293 s⁻¹	4.7e+07 M⁻¹ s⁻¹	530 pM	–	–	–	–
B1	–	–	–	–	370 pM	0.025 s⁻¹	6.8e+07 M⁻¹ s⁻¹	310 pM
